What was measured:
Test in all cases: cell-based or functional assay
Fas (human) = Fas (human) (UniProt P25445)
[1] = target: B7-1 (CD28 ligand) on mouse lymph node accessory cells (mouse) (UniProt Q00609)
[2] = target: B7-2 (CD28 ligand) on mouse lymph node accessory cells (mouse) (UniProt P42082)
UniProt P42082, sequence (P42082 24-309): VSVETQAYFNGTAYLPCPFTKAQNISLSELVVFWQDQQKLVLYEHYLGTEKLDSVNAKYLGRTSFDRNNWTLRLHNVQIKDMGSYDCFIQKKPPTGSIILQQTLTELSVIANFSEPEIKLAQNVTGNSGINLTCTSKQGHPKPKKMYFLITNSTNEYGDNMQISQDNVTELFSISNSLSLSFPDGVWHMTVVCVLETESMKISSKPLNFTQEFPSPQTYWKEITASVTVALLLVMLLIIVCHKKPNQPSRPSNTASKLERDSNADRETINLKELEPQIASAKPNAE

UniProt P25445, sequence (P25445 26-335): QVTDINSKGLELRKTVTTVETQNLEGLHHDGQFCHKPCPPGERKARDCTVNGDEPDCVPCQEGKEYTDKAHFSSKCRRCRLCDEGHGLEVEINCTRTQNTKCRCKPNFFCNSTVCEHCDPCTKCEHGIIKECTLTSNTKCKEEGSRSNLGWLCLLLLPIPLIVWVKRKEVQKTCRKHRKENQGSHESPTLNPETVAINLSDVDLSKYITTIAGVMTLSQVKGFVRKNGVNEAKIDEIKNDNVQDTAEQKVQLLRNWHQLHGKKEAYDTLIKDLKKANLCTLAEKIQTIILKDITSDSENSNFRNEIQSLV
UniProt Q00609, sequence (Q00609 38-306): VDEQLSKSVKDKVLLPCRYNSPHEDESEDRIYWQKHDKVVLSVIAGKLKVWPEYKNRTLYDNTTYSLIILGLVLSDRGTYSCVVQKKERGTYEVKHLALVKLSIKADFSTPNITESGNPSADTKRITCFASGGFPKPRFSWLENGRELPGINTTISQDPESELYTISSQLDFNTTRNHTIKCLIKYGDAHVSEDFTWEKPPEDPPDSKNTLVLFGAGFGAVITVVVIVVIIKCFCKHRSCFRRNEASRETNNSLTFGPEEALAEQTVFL

Row | Substance | viability of Jurkat Neo control clones after Fas antibody at 10 ng/ml (Fas (human)) [%] | viability of the activated T cells at 72 hrs [1] [%] | viability of the activated T cells at 72 hrs [2] [%]
1 | CH-11 anti-Fas monoclonal antibody (Panvera) | < 10 |  | 
2 | CTLA4Ig (from Repligen) (Fc fusion) |  | 20 | 20

Reference: patent US20060199780A1
